# Residue numbers refer to the chain shown, from its start.
# T1: human CD20 (human, UniProt P11836 1-297)
# T1 sequence: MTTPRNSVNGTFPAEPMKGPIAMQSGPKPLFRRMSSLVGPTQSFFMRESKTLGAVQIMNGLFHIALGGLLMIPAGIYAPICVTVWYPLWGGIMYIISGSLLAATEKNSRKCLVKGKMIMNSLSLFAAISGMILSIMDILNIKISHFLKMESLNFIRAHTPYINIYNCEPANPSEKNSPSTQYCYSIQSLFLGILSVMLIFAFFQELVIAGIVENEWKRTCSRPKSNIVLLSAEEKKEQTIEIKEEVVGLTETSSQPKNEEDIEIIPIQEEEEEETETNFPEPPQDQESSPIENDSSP
# T2: mutant human CD20 #1 (Y77F) (human, UniProt P11836 1-297)
# T2 construct: Human residues replaced by mouse residues; stably expressed on MG87 cells
# T2 sequence: T1 sequence with Y77F
# T3: mutant human CD20 #2 (N163D) (human, UniProt P11836 1-297)
# T3 construct: Stably expressed on MG87 cells
# T3 sequence: T1 sequence with N163D
# T4: mutant human CD20 #4 (N166D) (human, UniProt P11836 1-297)
# T4 construct: Stably expressed on MG87 cells
# T4 sequence: T1 sequence with N166D
# T5: mutant human CD20 #7 (Y77F, N163D) (human, UniProt P11836 1-297)
# T5 construct: Stably expressed on MG87 cells
# T5 chain: T1 sequence with Y77F, N163D
# B1: 10E3-17 (antibody, V domains shown)
# VH: EVQLVESGGGLVQPGRSLRLSCAASGFTFRDYAMHWVRQVPGKGLEWVSGISWNRGTIGYADSVKGRFTISRDNAKNSLFLQMNSLRADDTALYYCAKDHYYGSGSPYGMDVWGQGTTVTVSS
# VL: EIVLTQSPATLALSPGERATLSCRASQSVSKYLAWYQQKPGQAPRLLIYDASKRVTGIPGRLSGSGSGTDFTLTISSLEPEDFALYYCQQSSNWPITFGQGTRVEIK
# notes: Fully human IgG, constant region not specified; also called 10E3-17N
# B2: 3H7-6 (antibody, V domains shown)
# VH: EVQLVESGGGLVQPGRSLRLSCAASGFTFYDYAMHWVRQAPGKGLEWVSGISWNSGYIGYADSVKGRFTISRDNAKNSLYLQMNSLRAEDTALYYCAKDNSYGKFYYGLDVWGQGTTVTVSS
# VL: EIVMTQSPATLSVSPGERTTLSCRASQSVSSNLAWYLQKPGQAPRLLIYGASTRATGIPARFSGSGSGTEFILTISSLQSEDFAVYYCQQYNNWPITFGQGTRLEIK
# notes: Fully human IgG, constant region not specified; also called 3H7-6N
# B3: 6B9-4 (antibody, V domains shown)
# VH: EEQLVESGGDLVQPGRSLRLSCAASGFTFHDYTMHWVRQAPGKGLEWVSGISWNSGSIGYADSVKGRFTISRDNAKNSLYLQMNSLRIEDTALYYCAKDPSYGSGSYYYYYGMDVWGQGTTVTVSS
# VL: EIVLTQSPATLSLSPGERATLSCRASQSVSSYLVWYQQRPGQAPRLLIYEASNRATGIPARFSGSGSGTDFTLTISSLESEDFAVYYCQQRSNWPLTFGGGTKVEIK
# notes: Fully human IgG, constant region not specified; also called 6B9-4N
# B4: 7E1-13 (antibody, V domains shown)
# VH: EVQLVESGGGLVQPGRSLRLSCTASGFTFGDFPMHWVRQAPGKGLEWVSGITWNSGSIVYADSVKGRFTISRDNAKNSLYLQMNSLRTEDTALYYCAKDSHYGSGNFYYYYYGMDVWGQGTTVTVSS
# VL: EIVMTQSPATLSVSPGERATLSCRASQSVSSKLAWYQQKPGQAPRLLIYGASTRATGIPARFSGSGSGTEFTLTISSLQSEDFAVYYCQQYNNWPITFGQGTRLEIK
# notes: Fully human IgG, constant region not specified; also called 7E1-13N
# B5: 2C11-4 (antibody, V domains shown)
# VH: EVQLVESGGGLVQPGRSLRLSCAASGFTFRDYAMHWVRQGPGKGLEWVSGISWNTDYIGYADSVKGRFTISRDNAKNSLYLQMNSLRPEDTALYYCAKDARYGRDNYYGMDVWGQGTTVTVSS
# VL: EIVLTQSPATLSLSPGERATLSCRASQSVSRYLAWYQQKPGQAPRLLIHDASNRATGIPARFSGSGSGTDFTLTITSLEPEDFVVYYCQQRSDWPITFGQGTRLEIK
# notes: Fully human IgG, constant region not specified; also called 2C11-4N
# B6: 9H4-12 (antibody, V domains shown)
# VH: EVQLVESGGGLVQPGRSLRLSCAASGFTFDDYAMHWVRQVPGKGLEWVSGISWNSGSIGYADSVKGRFTISRDNAKNSLYLQMNSLRAEDTALYYCAKDMGYGNYYHYGMDVWGQGTTVTVSS
# VL: B5 VL with E1D, R31S, H49C, N53H, G57R, T76S, V84A, D93N
# notes: Fully human IgG, constant region not specified; also called 9H4-12N
# B7: 3B9-10 (antibody, V domains shown)
# VH: EVQLVESGGGLVQPGRSLRLSCVASGFTFNDYAMHWVRQAPGKGLEWVSVISWNSDSIGYADSVKGRFTISRDNAKNSLYLQMHSLRAEDTALYYCAKDNHYGSGSYYYYQYGMDVWGQGTTVTVSS
# VL: B2 VL with T19A, L37Q, A51T, I72T, I96L, Q100G, R103K, L104V
# notes: Fully human IgG, constant region not specified; also called 3B9-10N
# B8: 9C3-8 (antibody, V domains shown)
# VH: B7 VH with V23A, T28S, N30H, V50G, I58L, H84N, Y107H, Q111K
# VL: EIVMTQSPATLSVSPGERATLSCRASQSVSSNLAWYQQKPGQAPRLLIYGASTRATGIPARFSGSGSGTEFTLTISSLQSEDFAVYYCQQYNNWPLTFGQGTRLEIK
# notes: Fully human IgG, constant region not specified; also called 9C3-8N
# Molecular target: T1, human CD20
# Assay: cell-based or functional assay
Binder,"% Cytotoxicity (CDC, Daudi), 0 hour [%]","% Cytotoxicity (CDC, Daudi), 1 hour [%]","% Cytotoxicity (CDC, Daudi), 6 hour [%]"
B1,97,96.2,79.2
B2,97.5,94,67.6
B3,98.1,98.5,97.5

# Molecular target: T1, human CD20
# Assay: cell-based or functional assay
# Remark: another data set of the same source
Binder,"% Cytotoxicity (CDC, Daudi), 0 hour [%]","% Cytotoxicity (CDC, Daudi), 1 hour [%]","% Cytotoxicity (CDC, Daudi), 6 hour [%]"
B4,98.1,98.5,89.3
B5,29.1,14,22.4
B6,43.2,17.4,23.1
B7,98.4,97.9,82.2
B8,98.7,98.5,76.9

# Molecular target: T1, human CD20
# Assay: cell-based or functional assay
# Remark: another data set of the same source
row,Binder,"ADCC EC50 (pM), Daudi + PBMC [pM]"
1,B4,2.14
2,B1,1.2
3,B5,1.45
4,B6,33.8
5,B7,6.77
6,B2,11.1
7,B8,11
8,B3,4.27

# Molecular target: T1, human CD20
# Assay: flow cytometry, hCD20-transfected MG87 cells
# Procedure: Briefly, parental MG87 and human CD20-transfected MG87 cells were incubated for 30 min at 4° C. with each of the 15 human antibodies and the two control antibodies, followed by incubation with PE-conjugated anti-human IgG antibody. Binding was assessed by flow cytometry. Fluorescence intensities were compared with binding to the parental cell line and control isotype-matched sample.
row,Binder,Total Mean Fluorescent Intensity
1,B4,3080
2,B1,3070
3,B5,2010
4,B6,2040
5,B7,2990
6,B2,3300
7,B8,2910
8,B3,2930

# Molecular target: T2, mutant human CD20 #1 (Y77F)
# Assay: FACS, mutant-hCD20 MG87 cells; 100%=best antibody
# Procedure: (§1) Briefly, approximately 1×10⁶ cells from each stably transfected cell line expressing a mutant human CD20 were collected and incubated with each anti-human antibody, at 10 μg/ml, on ice for 1 hr, followed by incubation with APC-conjugated goat anti-human IgG (Jackson Immunolabs), at 10 μg/ml, on ice for 45 min. For each antibody, binding to each mutant human CD20 was assessed by flow cytometry.
row,Binder,Percent of Binding to Mutant Human CD20 [%]
1,B4,94
2,B1,61
3,B5,35
4,B6,19
5,B7,56
6,B2,28
7,B8,36
8,B3,74

# Molecular target: T3, mutant human CD20 #2 (N163D)
# Assay: FACS, mutant-hCD20 MG87 cells; 100%=best antibody
# Procedure: as §1
row,Binder,Percent of Binding to Mutant Human CD20 [%]
1,B4,49
2,B1,1
3,B5,0
4,B6,0
5,B7,6
6,B2,1
7,B8,0
8,B3,3

# Molecular target: T4, mutant human CD20 #4 (N166D)
# Assay: FACS, mutant-hCD20 MG87 cells; 100%=best antibody
# Procedure: as §1
row,Binder,Percent of Binding to Mutant Human CD20 [%]
1,B4,84
2,B1,1
3,B5,31
4,B6,0
5,B7,40
6,B2,4
7,B8,22
8,B3,3

# Molecular target: T5, mutant human CD20 #7 (Y77F, N163D)
# Assay: FACS, mutant-hCD20 MG87 cells; 100%=best antibody
# Procedure: as §1
row,Binder,Percent of Binding to Mutant Human CD20 [%]
1,B4,1
2,B1,1
3,B5,1
4,B6,2
5,B7,1
6,B2,1
7,B8,1
8,B3,2
